# In patent US20210318312A1 (TRUSTEES OF PRINCETON UNIVERSITY, published 2021):
# T1: SIRT3, endogenous (human, UniProt Q9NTG7 102-399, limits assumed)
# T1 sequence (looked up): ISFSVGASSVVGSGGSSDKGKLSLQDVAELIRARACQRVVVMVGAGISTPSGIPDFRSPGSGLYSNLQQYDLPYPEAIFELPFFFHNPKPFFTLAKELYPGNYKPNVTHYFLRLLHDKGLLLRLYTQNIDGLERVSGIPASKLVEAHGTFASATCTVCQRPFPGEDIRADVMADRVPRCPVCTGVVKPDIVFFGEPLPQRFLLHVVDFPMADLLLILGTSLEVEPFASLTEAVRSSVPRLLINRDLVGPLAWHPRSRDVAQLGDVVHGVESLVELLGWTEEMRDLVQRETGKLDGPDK
# T2: dihydrolipoyllysine acetyltransferase (DLAT), endogenous (human, UniProt P10515 87-647, lipoyl-lysine at K132 and K259)
# T2 construct: Endogenous protein in mitochondrial lysates of MRC5 cells; also called E2 component of the PDHC
# T2 sequence (looked up): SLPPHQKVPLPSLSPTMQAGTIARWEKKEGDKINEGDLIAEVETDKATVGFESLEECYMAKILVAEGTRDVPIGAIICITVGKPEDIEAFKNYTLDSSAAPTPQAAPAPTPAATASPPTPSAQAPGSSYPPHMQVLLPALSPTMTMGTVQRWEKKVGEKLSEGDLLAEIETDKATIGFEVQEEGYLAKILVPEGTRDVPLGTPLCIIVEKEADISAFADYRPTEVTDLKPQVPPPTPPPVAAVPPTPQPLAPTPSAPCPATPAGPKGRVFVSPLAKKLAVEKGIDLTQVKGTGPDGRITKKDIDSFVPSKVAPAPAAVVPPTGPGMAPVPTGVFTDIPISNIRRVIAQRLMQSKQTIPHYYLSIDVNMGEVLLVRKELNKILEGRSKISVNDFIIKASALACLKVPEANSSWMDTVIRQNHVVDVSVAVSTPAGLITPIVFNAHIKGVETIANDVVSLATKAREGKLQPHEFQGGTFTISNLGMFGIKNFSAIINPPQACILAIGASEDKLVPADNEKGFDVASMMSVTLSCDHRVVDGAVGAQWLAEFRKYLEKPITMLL
# T3: PDH component X (PDHX), endogenous (human, UniProt O00330 54-501)
# T3 construct: Endogenous protein in mitochondrial lysates of MRC5 cells
# T3 sequence (looked up): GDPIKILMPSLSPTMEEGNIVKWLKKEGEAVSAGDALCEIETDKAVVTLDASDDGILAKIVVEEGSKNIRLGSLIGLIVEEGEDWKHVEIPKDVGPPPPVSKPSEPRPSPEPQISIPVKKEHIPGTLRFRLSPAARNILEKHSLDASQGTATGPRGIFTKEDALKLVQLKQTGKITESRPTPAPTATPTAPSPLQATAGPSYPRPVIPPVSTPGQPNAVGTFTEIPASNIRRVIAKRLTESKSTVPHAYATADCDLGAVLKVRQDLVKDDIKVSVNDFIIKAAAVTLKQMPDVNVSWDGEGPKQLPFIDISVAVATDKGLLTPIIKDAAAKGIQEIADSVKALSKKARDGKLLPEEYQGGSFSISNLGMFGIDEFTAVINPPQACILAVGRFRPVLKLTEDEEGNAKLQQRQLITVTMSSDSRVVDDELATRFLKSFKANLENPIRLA
# Legend:
# SIRT3, endogenous = biological target: T1, SIRT3, endogenous; assay: immunoaffinity purification of SIRT4-EGFP from MRC5 mitochondria with mass spectrometry (IP-MS), SAINT scoring
# Procedure: Immunoaffinity Purification. SIRT4-EGFP and control EGFP immunoaffinity purifications (IPs) from MRC5 cells were performed using M270 Epoxy Dynabeads (Invitrogen, cat. #14302D) coupled with in-house generated rabbit anti-GFP polyclonal antibodies, as described previously²⁹. Pooled mitochondria from fractions 3 and 4 from the OptiPrep™ gradient were resuspended in 1 mL optimized Lysis Buffer (20 mM HEPES-KOH, pH 7.4, 0.1 M KOAc, 2 mM MgCl₂, 0.1% Tween-20, 1 μM ZnCl₂, 1 μM CaCl2)), with 0.6% Triton X-100, 200 mM NaCl, and 1/100 (v/v) protease inhibitor cocktail (Sigma, cat. #P8340). Lysed mitochondria were vortexed three times for 20 sec each, and mixed by rotation for 10 min at 4° C. Insoluble material (pellet) was removed by centrifugation at 5000×g for 10 min. The supernatant was collected and SIRT4-EGFP or free EGFP (negative control) was immunoisolated by incubation with 7 mg of GFP-coupled magnetic beads for 60 min at 4° C. […]
# To investigate potential endogenous substrates of SIRT4, proteomics was used to define its endogenous mitochondrial protein interactions. […] Using direct fluorescence microscopy (co-localization with MitoTracker, FIG. 4) and density-based organelle fractionation (co-isolation with the mitochondrial COX IV, FIG. 1a), we confirmed its mitochondrial localization. […]
# [1] = biological target: T2, dihydrolipoyllysine acetyltransferase …; assay: anti-GFP immunoaffinity purification from MRC5 mitochondria, western blot; confocal co-localization
# Procedure: (§1) Western Immunoblotting. 10 μg of protein from each fraction was resuspended in L SDS Sample Buffer. Each sample was subjected to SDS-PAGE, transferred to nitrocellulose membranes (GE Healthcare Life Sciences, cat. #45-000-929), and blocked in blocked in 5% (w/v) skim milk powder in Tris-buffered saline with 0.05% (v/v) Tween-20 (TBST) for 1 hr at RT. Membranes were probed according to manufacturer's instructions, with the following primary antibodies: mouse anti-GFP (Roche, cat. #11814460001), rabbit anti-LAMP1 (Abcam, cat. #ab24170), rabbit anti-COXIV (Cell Signaling Technology, cat. #4844), rabbit anti-DLAT (Santa Cruz Biotechnology, cat. #sc-32925), or rabbit anti-PDHX (Santa Cruz Biotechnology, sc-98752), for 1 h in TBST, followed by 1 hr incubation in corresponding horseradish peroxidase (HRP)-conjugated secondary antibodies (Jackson ImmunoResearch Laboratories). All antibody incubations were carried out at RT with gentle agitation, and blots washed three times with TBST for 10 min after each incubation. Immuno-targets were detected using ECL (GE Healthcare Life Sciences, cat. #RPN2106).
# (§2) Immunoaffinity Purification. SIRT4-EGFP and control EGFP immunoaffinity purifications (IPs) from MRC5 cells were performed using M270 Epoxy Dynabeads (Invitrogen, cat. #14302D) coupled with in-house generated rabbit anti-GFP polyclonal antibodies, as described previously²⁹. […]
# [2] = biological target: T3, PDH component X (PDHX), endogenous; assay: as above
# Procedure: as §1, §2
# [3] = biological target: T2, dihydrolipoyllysine acetyltransferase …; assay: reciprocal immunoaffinity purification of DLAT from wild-type fibroblasts, western blot (FIG. 1F)
"binding result (SIRT3, endogenous)",binding result [1],binding result [2],binding result [3],Binder
no binding,binds,binds,,"SIRT4-EGFP (enzyme, Stably expressed in MRC5 fibroblasts and immunoisolated from mitochondrial lysate with anti-GFP beads; also called SIRT4-OE; not shown: EGFP (enhanced green fluorescent protein, ORF of pEGFP-N1), fused C-terminal of SIRT4; linker) IGLFVPASPPLDPEKVKELQRFITLSKRLLVMTGAGISTESGIPDYRSEKVGLYARTDRRPIQHGDFVRSAPIRQRYWARNFVGWPQFSSHQPNPAHWALSTWEKLGKLYWLVTQNVDALHTKAGSRRLTELHGCMDRVLCLDCGEQTPRGVLQERFQVLNPTWSAEAHGLAPDGDVFLSEEQVRSFQVPTCVQCGGHLKPDVVFFGDTVNPDKVDFVHKRVKEADSLLVVGSSLQVYSGYRFILTAWEKKLPIAILNIGPTRSDDLACLKLNSRCGELLPLIDPC"
,,,binds,"endogenous SIRT4 (enzyme, Endogenous SIRT4 of wild-type MRC5 fibroblasts) IGLFVPASPPLDPEKVKELQRFITLSKRLLVMTGAGISTESGIPDYRSEKVGLYARTDRRPIQHGDFVRSAPIRQRYWARNFVGWPQFSSHQPNPAHWALSTWEKLGKLYWLVTQNVDALHTKAGSRRLTELHGCMDRVLCLDCGEQTPRGVLQERFQVLNPTWSAEAHGLAPDGDVFLSEEQVRSFQVPTCVQCGGHLKPDVVFFGDTVNPDKVDFVHKRVKEADSLLVVGSSLQVYSGYRFILTAWEKKLPIAILNIGPTRSDDLACLKLNSRCGELLPLIDPC"
